Here are results for three molecules from patent US20220389106A1 (University of Texas, published 2022).

This assay has as its target T1, recombinant hu-EphA10 Fc chimera protein [the extracellular domain (Glu34-Ala565)] (human, UniProt Q5JZY3 34-565).
T1 construct: range 34-565; Purified from 293T cells; also called hu-EphA10 Fc protein; not shown: Fc part of the chimera
T1 sequence (looked up): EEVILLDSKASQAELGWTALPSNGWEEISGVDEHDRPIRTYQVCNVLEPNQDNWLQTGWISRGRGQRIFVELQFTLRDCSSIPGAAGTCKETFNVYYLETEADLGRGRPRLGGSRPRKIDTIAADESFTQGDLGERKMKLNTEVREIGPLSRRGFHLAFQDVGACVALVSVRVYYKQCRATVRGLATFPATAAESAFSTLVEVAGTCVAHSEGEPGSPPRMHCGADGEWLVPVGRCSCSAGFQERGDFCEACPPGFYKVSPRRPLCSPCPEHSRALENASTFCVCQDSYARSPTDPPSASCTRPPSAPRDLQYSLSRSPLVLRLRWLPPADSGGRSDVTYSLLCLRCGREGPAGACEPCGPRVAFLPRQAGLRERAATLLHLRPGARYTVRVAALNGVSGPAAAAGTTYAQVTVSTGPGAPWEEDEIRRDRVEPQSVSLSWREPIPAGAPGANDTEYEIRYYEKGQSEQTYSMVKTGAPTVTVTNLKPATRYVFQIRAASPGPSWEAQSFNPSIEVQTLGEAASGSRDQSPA
Kind of assay: ELISA screening (FIG. 1C).

B1: anti-hu-EphA10 antibody Clone 8 (antibody, IgG1, V domains shown)
VH: QVQLQQSGPELVKPGPLVKISCKASGYTFTSYDITWVKQRPGQGLEWIGWIYPGDGSTKYNEKFKGKATLTADKSSSTAYMQLSSLTSENSAVYFCARGGRLPYFDYWGQGTTLTVSS
VL: NIVLTQSPASLAVSLGQRATISCRASESVDSYGNSFMHWYQQKPGQPPKLLIYLASNLESAVPARFSGSGSRTDFTLTIDPVEADDAATYYCQQNNEYPWTFGGGTKLEIK
For the molecule B1, the binding result was “binds”.

B2: anti-hu-EphA10 antibody Clone 9 (antibody, IgG1, V domains shown)
VH: QVQLQQSGAELMKPGASVKISCKATGYTFSTYWIEWVKQRPGHGLEWIGEILPGSGRTNYKEKFKDKATFTANTSSTTAYMQLSSLTSEDSAVYYCAIDWYWGQGTTLTVSS
VL: QIVLTQSPAIMSASPGEKVTITCSASSSVSYMYWFQQKPGTSPKLWIYSTSNLASGVPARFSGSGSGTSYSLTISRMEAEDAATYYCQQRNSYPPTFGGGTKLEIK
notes: also called anti-EphA10 (clone 9); anti-EphA10 (clone 9)-pHrodo
As for B2, the binding result is “binds”.

B3: anti-hu-EphA10 antibody Clone 4 (antibody, IgG1, V domains shown)
VH: EVKLEESGGGLVQPGGSMKLSCVASGFTFSYYWMNWVRQSPEKGLEWVAEIRLKSNNYATHYAESVKGRFTISRDDSKSSVYLQMNNLRAEDSGIYYCTFYYGSSAWFAYWGQGTLVTVSA
VL: DIQMTQSPASLSASVGETVTITCRASENIYSYLAWYQQKQGKSPQLLVYNVKTLTEGVPSRFSGSGSGTQFSLKIDSLQPEDFGSYYCQHHYVTPPTFGAGTKLELK
As for B3, the binding result is listed as “binds”.
